Results on 25 sequences are retold here after the DeepSol protein solubility set.

The nature of the data set: soluble on expression in E. coli; label from the status in PepcDB or PDB records.
“EIFSQELTQREANVKKVHENLEELQKKLDHTSFAHKEDRDRLEAQIAQKEQEQKAKLAEYDQKVQNEFDARERAEREREAARGDAAAEKQRLASLLKDLEDDASGYNRLRPSKPMLSEEDTNILRQLFLSSAVSGSGKFSFQDLKQVLAKYADTIPEGPLKKLFVMVENDTKGRMSYITLVAVANDLAALVADFRKIDTNSNGTLSRKEFREHFVRLGFDKKSVQDALFRYADEDESDDVGFSEYVHLGLCLLVLRILYAFADFDKSGQLSKEEVQKVLEDAHIPESARKKFEHQFSVVDVDDSKSLSYQEFVMLVLLMFHDD”: the “soluble on expression in E. coli” value is on record as “soluble”.

As to “EKDKYALALKDKGNQFFRNKKYDDAIKYYNWALELKEDPVFYSNLSACYVSVGDLKKVVEMSTKALELKPDYSKVLLRRASANEGLGKFADAMFDLSVLSLNGDFNDASIEPMLERNLNKQAMSKLKEKFGDIDTATATPTELSTQPAKERKDKQENLPSVTSMASFFGIFKPELTFANYDESNEADKELMNGLSNLYKRSPESYDKADESFTKAARLFEEQLDKNNEDEKLKEKLAISLEHTGIFKFLKNDPLGAHEDIKKAIELFPRVNSYIYMALIMADRNDSTEYYNYFDKALKLDSNNSSVYYHRGQMNFILQNYDQAGKDFDKAKELDPENIFPYIQLACLAYRENKFDDCETLFSEAKRKFPEAPEVPNFFAEILTDKNDFDKALKQYDLAIELENKLDGIYVGIAPLVGKATLLTRNPTVENFIEATNLLEKASKLDPRSEQAKIGLAQMKLQQEDIDEAITLFEESADLARTMEEKLQAITFAEAAKVQQRIRSDPVLAKKIQET”, the “soluble on expression in E. coli” value is on record as “soluble”.

Regarding “ELLVVTGMSGAGKSLVIQSLEDMGFFCVDNLPPVLLPKFVELMAQGNPSLQKVAIAIDLRGKELFKSLVKEIDIIKSRNDVILDVMFLEAKTEKIISRYKESRRAHPLNEQGQRSLIDAINEEREHLSEIRSIANYVIDTTKLKPKELKQRISKFYLDENFETFTINVTSFGFKHGIQMDADLVFDVRFLPNPYYVEELRPFTGLDEPVYNYVMKWKETQIFFDKLTDLLKFMIPGYKKEGKSQLVIAIGCTGGQHRSVALAKRLAEYLNEIFEYNVYVHHRDAHIE”, the “soluble on expression in E. coli” value is reported as “not soluble”.

Regarding “ENKDNKGQIKTLDRDGQSITSYSFFAKNGDNVEKINVEVDQRQLSKDESLKLMENSRNKLVKLVLDKNKSANHIDKPLNLIREIPDTDISVTWDISDSRVLNYDGQIMSDVSQEGTIVNLTANMELNELTLSYTFAVNVFPRNYKGDIQEAVQEYINSQDSEQKKIFLPENISGEKISYYKSASK”, the “soluble on expression in E. coli” value was “soluble”.

For the sequence “ENQYVMKLANSLFVQNGFHVNEEFLQMLKMYFNAEVNHVDFSQNVAVANSINKWVENYTNSLLKDLVSPEDFDGVTNLALINAVYFKGNWKSQFRPENTRTFSFTKDDESEVQIPMMYQQGEFYYGEFSDGSNEAGGIYQVLEIPYEGDEISMMLALSRQEVPLATLEPLLKAQLIEEWANSVKKQKVEVYLPRFTVEQEIDLKDILKALGVTEIFIKDANLTAMSDKKELFLSKAVHKSCIEVNEEGSEAAAASGMIAIS”, the “soluble on expression in E. coli” value is “soluble”.

Regarding “ENRLVVIVLRGAMDGLDLVRPVGDPLFATYRPRLAQDGQKGEGGVIPLSEGFVLHPLLNGLSALWRKGELGFVHAVSTPYRDKRSHFDGQDMLEAGTGPDVPPGVARDGWLNRMLQAVPGLEAETAWAIGRDPLPLMEGEAPVRVWSPDLALDLSAQNRRLLEELYHEDPLFRDVGTEALELAAKLSHGAGGEGPRDAKKDLAAIDELAAFAASQLRGAARIAAFSLSGWDTHRNQAAAIRKPLLKLQRMLLQLQAELGPVWDRTAILAMTEFGRTARENGSAGTDHGTAGAMIMAGGAIRGGRVLGRWPGLDEAALYDRRDLMPTSDVRAWAAWTMRSLYGFDRELLERSVFPGIEMREDPGLVL”, the “soluble on expression in E. coli” value is on record as “not soluble”.

In the case of “EPGSSEGLGLLNVHTVLTGSKQLTKTEAVLNLNNQKAKVKGYEIHVGRSQVLDEQPLELDNGECDGAISECGQIMGTYLHGFFDEAEALNLITEWVNGTQVKQQDFEVLKEQGINRIADAIEQHMNLDFLFK”, the “soluble on expression in E. coli” value is recorded as “not soluble”.

For “ERVVINISGLRFETQLKTLAQFPETLLGDPKKRMRYFDPLRNEYFFDRNRPSFDAILYYYQSGGRLRRPVNVPLDIFSEEIRFYELGEEAMEMFREDEG”, the “soluble on expression in E. coli” value is “soluble”.

With “ESICLIGHSLGGDLARYFASEFEEVKKLILLDGGYLDLDKILPLDTELEETKNYIKSQIVSDLDVLTSKEKSEAKHWSENMEKAVRQSYHWNVEYNRYELAINYENIEAILRLRRKIQAFKREVGDTLFISPRYPNEATWREEALKELPDYFDTIFLENFGHELYTQAPKEIASLMNEWLAYFL”, the “soluble on expression in E. coli” value was “not soluble”.

On to “ESPEIQVEEQSFNFGLIPEEKGSVGHSFKFRNSGTAPLLITRVMADCGCTTPTWPEEAIAPGEEAEIRVLFDPVGRSGAFVKRIRVFSNAQSSPLE”, for which the “soluble on expression in E. coli” value was “not soluble”.

For “ESTTVKMYEALPTGPGKEVGTVVISEAPGGLHFKVNMEKLTPGYHGFHVHENPSCAPGEKDGKIVPALAAGGHYDPGNTHHHLGPEGDGHMGDLPRLSANADGKVSETVVAPHLKKLAEIKQRSLMVHVGGDNYSDKPEPLGGGGARFACGVIE”, the “soluble on expression in E. coli” value is “soluble”.

For the sequence “ETDCRWDGCSQEFDSQEQLVHHINSEHIHGERKEFVCHWGGCSRELRPFKAQYMLVVHMRRHTGEKPHKCTFEGCRKSYSRLENLKTHLRSHTGEKPYMCEHEGCSKAFSNASDRAKHQNRTHSNEKPYVCKLPGCTKRYTDPSSLRKHVKTVHG”, the “soluble on expression in E. coli” value was “soluble”.

In the case of “ETDETLGEREIRRVLARSGEEGNIDASEVDMIERVFDLDDTVVREVMVPRPDVVSVPADATMSDIRAVVLDEGHTRYPVVDADDSDQIVGFIDVKDVLRAGEEGNENTTAGDIAHEIPVVPETTAINDLLLQFRQDRRQMAAVIDEWGSLEGIATIEDVVEAVVGDLRDEFDVDGREHAIRKQSDGSYDADGGV”, the “soluble on expression in E. coli” value is recorded as “not soluble”.

“EVKLQESGGDLVQPGGSLKLSCAASGFTFSSYTMSWVRQTPEKRLEWVASINNGGGRTYYPDTVKGRFTISRDNAKNTLYLQMSSLKSEDTAMYYCVRHEYYYAMDYWGQGTTVTVSSAWRHPQFGG”: the “soluble on expression in E. coli” value is on record as “soluble”.

Consider “EVVVVGYQEVRRRDLTGSVAKANMADVLTAPVASFDQALGGRIAGVNVTSGEGMPGGNMSIVIRGNNSLTQENSPLFVIDGFPIEDSSAASTLNPSDIESLDFLKDASATAIYGARGANGVVIITTKKGK”, for which the “soluble on expression in E. coli” value is on record as “not soluble”.

Regarding “FCGRARVHTDFTPSPYDTDSLKLKKGDIIDIISKPPMGTWMGLLNNKVGTFKFIYVDVLS”, the “soluble on expression in E. coli” value is given as “soluble”.

Turning to “FDKVKVSTNFTYTLNQNKIVSLANGAINPETGEAIEMEYYSKGTLGTSGGPTLRLYENGSMGDIYINQRLRQSPNGYIWKDPSNGSLAIENTEYRKVGSILPKYYLGWNGSVAWKGWNLGFAFTGRFGGLVVSDTQAMIDKYGVSESSAVARQAGGVWVGDSKVDAEEYYSKVTTAVGTYYTYSATNIRLSELSLSYQLPKTWFKNHVNMTLGLTGKNLWMIYCKAPYDPESTSSVTSNFYQGVDYFQQPSLRSLGFNVKLTF”, the “soluble on expression in E. coli” value was “not soluble”.

For “FGSLTVFAGDSPYAPPAGGEAIGRLMERAMHDGLVAGGIVLVGNRHGTIYEHVFGKQSSLPDSPPVTSSTIFDIASLTKVIATTPAVMRLAEEGRLSLVDPLVRWFPEFAGHGKDDVLVVHLLTHTSGLDDFSLSSADPLQSAISGVAAQKLKGEPGNRFRYADINFILLGELVRRVTGSTLDRYAADAFLRPLGMKDTAFLPGPAIAERCAATLDGSGGPHFGTVQDPLARLLGGVAGHAGLFGTASDLALFCRMILGEGELNGRRVLEERTVRQMTAPYFSRGGKVTRGLGWDMASPFSSPRGEGFSEESFGHTGYSGGSIWIDPRTDTYVIFLS”, the “soluble on expression in E. coli” value is listed as “not soluble”.

On to “FINQKKVEESELIENKTYGVLITKAGNYHKFESNQLLKSTTDFKSESDTIIFAQTIANTDQIFIVTSLGNIINIPVYKLAFNSKNKLASLVSKKPILLEYETIVFVGTMN”, for which the “soluble on expression in E. coli” value is recorded as “not soluble”.

Consider “FISRFAPDQPRKGADILVEALERQGVETVFAYPGGASMEIHQALTRSSSIRNVLPRHEQGGVFAAEGYARSSGKPGICIATSGPGATNLVSGLADALLDSVPLVAITGQVPRRMIGTDAFQETPIVEVTRSITKHNYLVMDVEDIPRIIEEAFFLATSGRPGPVLVDVPKDIQQQLAIPNWEQAMRLPGYMSRMPKPPEDSHLEQIVRLISESKKPVLYVGGGCLNSSDELGRFVELTGIPVATTLMGLGSYPCDDELSLHMLGMHGTVYANYAVEHSDLLLAFGVRFDDRVTGKLEAFASRAKIVHIDIDSAEIGKNKTPHVSVCGDVKLALQGMNKVLENRAEELKLDFGVWRNELNVQKQKFPLSFKTFGEAIPPQYAIKVLDELTDGKAIISTGVGQHQMWAAQFYNYKKPRQWLSSGGLGAMGFGLPAAIGASVANPDAIVVDIDGDGSFIMNVQELATIRVENLPVKVLLLNNQHLGMVMQWEDRFYKANRAHTFLGDPAQEDEIFPNMLLFAAACGIPAARVTKKADLREAIQTMLDTPGPYLLDVICPHQEHVLPMIPSGGTFNDVITEGDGRIKY”, for which the “soluble on expression in E. coli” value is “soluble”.

As to “FLDDINEDALPNDRTGYQDTLIWNKLFNYQKDAATGIINKLESYNGCILADSVGLGKTFTALAVIKYYELRNKSVLVLCPKKLADNWLNYSRNLKTNIFARDRFNYDVLCHTDLSRTSGESFGTPLNRINWGNYDLVIIDESHNFRNNDAYKDKETRYQKLMNKVIKEGVKTKVLMLSATPVNNRFNDLRNQLALAYEGDS”, the “soluble on expression in E. coli” value is reported as “not soluble”.

As to “FMQDFEDIQKDIEQLDIKCAHEQMNIQKQYDEKKKPLFEKRDEIIQKIPGFWANTLRKHPALSDIVPEDIDILNHLVKLDLKDNMDNNGSYKITFIFGEKAKEFMEPLTLVKHVTFDNNQEKVVECTRIKWKEGKNPIAAVTHNRSDLDNEIPKWSIFEWFTTDELQDKPDVGELIRREIWHNPLSYYLGLEE”, the “soluble on expression in E. coli” value is “soluble”.

Regarding “FPSKARMFEGLIEFIEESLMSRINRIFDEEKDTLNRIRLVMQLLLAFAERNPGLTRILSGHALMFENERLRDRINQLFERIETSLRQILRERKLREGKSFPVDENILAAQLLGQVEGSLNRFVRSDFKYLPTANFDEYWALLSAQIK”, the “soluble on expression in E. coli” value is given as “not soluble”.

As to “FRELTEREEAVRESHQRISTILESITDAFFSLDHSWRFTYLNGEAERLLGRTRDDLLGKSIWEEFAAAVGTRFDVEYRRAVASGTTATFEEYYPPLACWFEVHAYPSRDGLSVFFQDIT”, the “soluble on expression in E. coli” value is given as “not soluble”.

For the sequence “FTPVTKAAVINTFDGVADYLIRYKRLPNDYITKSQASALGWVASKGDLAEVAPGKSIGGDVFSNREGRLPSAGSRTWREADINYVSGFRNADRLVYSSDWLIYKTTDHYATFTRIR”, the “soluble on expression in E. coli” value is given as “soluble”.
